B1: LTR-III (radiolabelled) (structured_DNA)
DNA: GGGAGGCGTGGCCTGGGCGGGACTGGGG
B2: PolyT (T30) (ssDNA)
DNA: TTTTTTTTTTTTTTTTTTTTTTTTTTTTTT
B3: F-G-rich-scrambled (ssDNA)
DNA: GGAGTCGTGTCGCGTGTCGAGCGTGTGTAGTGG
B4: F-un2 (structured_DNA)
DNA: GGGGGCGAGGGGCGGGAGGGGGCGAGGGG
B5: hTel (radiolabelled) (structured_DNA)
DNA: GGGTTAGGGTTAGGGTTAGGG
B6: un2 (radiolabelled) (structured_DNA)
DNA: GGGGGCGAGGGGCGGGAGGGGGCGAGGGG

Legend:
[1] = target: T1, ICP4 (nuclear extract) (HSV-1 strain F) (UniProt P08392); assay: pull-down; conditions: XL pull-down: oligos folded in 20 mM PB pH 7.4, 80 mM KCl, 4 C, 45 min, wash 50 mM Tris-HCl pH 7.5, 150 mM NaCl; ICP4 EMSA: 20 mM Tris-HCl pH 8, 25 mM KCl …
T1 sequence: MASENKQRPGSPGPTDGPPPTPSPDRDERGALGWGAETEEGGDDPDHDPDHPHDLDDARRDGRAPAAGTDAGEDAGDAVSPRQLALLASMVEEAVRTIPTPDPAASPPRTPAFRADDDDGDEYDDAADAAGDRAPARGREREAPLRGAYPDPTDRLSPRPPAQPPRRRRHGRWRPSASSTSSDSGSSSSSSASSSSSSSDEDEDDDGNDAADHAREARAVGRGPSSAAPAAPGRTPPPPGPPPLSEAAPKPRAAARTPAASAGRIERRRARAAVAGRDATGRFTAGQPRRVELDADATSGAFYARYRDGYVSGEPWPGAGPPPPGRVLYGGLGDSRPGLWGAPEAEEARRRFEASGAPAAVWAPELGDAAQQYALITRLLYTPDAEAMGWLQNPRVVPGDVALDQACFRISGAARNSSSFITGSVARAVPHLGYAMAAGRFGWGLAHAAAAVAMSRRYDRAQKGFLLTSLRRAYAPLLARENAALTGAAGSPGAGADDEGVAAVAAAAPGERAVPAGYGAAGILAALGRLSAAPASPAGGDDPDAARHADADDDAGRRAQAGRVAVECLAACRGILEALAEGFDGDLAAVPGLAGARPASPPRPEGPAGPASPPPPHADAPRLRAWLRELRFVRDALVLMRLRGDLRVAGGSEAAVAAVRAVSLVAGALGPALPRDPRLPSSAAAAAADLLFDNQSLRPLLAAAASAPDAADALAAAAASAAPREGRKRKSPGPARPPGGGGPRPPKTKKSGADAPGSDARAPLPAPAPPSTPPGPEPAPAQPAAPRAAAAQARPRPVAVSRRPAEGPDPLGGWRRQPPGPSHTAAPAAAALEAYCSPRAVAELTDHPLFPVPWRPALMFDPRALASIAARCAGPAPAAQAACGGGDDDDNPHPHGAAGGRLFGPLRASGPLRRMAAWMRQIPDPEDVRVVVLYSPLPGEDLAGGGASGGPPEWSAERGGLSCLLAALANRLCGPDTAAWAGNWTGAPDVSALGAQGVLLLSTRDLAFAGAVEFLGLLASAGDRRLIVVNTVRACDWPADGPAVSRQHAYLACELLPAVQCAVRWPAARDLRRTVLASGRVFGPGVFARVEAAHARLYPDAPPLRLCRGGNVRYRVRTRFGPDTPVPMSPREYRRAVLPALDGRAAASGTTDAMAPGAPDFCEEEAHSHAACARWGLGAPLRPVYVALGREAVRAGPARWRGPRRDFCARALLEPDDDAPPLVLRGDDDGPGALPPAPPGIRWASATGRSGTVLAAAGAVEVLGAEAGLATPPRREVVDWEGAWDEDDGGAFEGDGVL

ICP8 [2] = target: T2, ICP8 (HSV-1, UniProt P04296 1-1196); assay: EMSA; 0-3 ug ICP8; Na+ and K+ buffers; XL pull-down: oligos folded in 20 mM PB pH 7.4, 80 mM KCl, 4 C, 45 min, wash 50 mM Tris-HCl pH 7.5, 150 mM NaCl; ICP4 EMSA: 20 mM Tris-HCl pH 8, 25 mM KCl, 1.5; conditions: protein: recombinant; tags: GST; label: 32P (Methods) / 33P; G4
ICP8 [3] = target: T2, ICP8; assay: EMSA; 0-3 ug ICP8; XL pull-down: oligos folded in 20 mM PB pH 7.4, 80 mM KCl, 4 C, 45 min, wash 50 mM Tris-HCl pH 7.5, 150 mM NaCl; ICP4 EMSA: 20 mM Tris-HCl pH 8, 25 mM KCl, 1.5; conditions: protein: recombinant; tags: GST; label: 32P (Methods) / 33P
[4] = target: T3, ufICP4 (ultrafiltrated ICP4) (HSV-1 strain F, UniProt P08392 1-1298); assay: EMSA; 5-10x ufICP4; XL pull-down: oligos folded in 20 mM PB pH 7.4, 80 mM KCl, 4 C, 45 min, wash 50 mM Tris-HCl pH 7.5, 150 mM NaCl; ICP4 EMSA: 20 mM Tris-HCl pH 8, 25 mM KCl, 1.5; conditions: protein: native, chain copies: 2, label: 5' FAM
T3 sequence: T1 sequence

T2 sequence (P04296 whole entry): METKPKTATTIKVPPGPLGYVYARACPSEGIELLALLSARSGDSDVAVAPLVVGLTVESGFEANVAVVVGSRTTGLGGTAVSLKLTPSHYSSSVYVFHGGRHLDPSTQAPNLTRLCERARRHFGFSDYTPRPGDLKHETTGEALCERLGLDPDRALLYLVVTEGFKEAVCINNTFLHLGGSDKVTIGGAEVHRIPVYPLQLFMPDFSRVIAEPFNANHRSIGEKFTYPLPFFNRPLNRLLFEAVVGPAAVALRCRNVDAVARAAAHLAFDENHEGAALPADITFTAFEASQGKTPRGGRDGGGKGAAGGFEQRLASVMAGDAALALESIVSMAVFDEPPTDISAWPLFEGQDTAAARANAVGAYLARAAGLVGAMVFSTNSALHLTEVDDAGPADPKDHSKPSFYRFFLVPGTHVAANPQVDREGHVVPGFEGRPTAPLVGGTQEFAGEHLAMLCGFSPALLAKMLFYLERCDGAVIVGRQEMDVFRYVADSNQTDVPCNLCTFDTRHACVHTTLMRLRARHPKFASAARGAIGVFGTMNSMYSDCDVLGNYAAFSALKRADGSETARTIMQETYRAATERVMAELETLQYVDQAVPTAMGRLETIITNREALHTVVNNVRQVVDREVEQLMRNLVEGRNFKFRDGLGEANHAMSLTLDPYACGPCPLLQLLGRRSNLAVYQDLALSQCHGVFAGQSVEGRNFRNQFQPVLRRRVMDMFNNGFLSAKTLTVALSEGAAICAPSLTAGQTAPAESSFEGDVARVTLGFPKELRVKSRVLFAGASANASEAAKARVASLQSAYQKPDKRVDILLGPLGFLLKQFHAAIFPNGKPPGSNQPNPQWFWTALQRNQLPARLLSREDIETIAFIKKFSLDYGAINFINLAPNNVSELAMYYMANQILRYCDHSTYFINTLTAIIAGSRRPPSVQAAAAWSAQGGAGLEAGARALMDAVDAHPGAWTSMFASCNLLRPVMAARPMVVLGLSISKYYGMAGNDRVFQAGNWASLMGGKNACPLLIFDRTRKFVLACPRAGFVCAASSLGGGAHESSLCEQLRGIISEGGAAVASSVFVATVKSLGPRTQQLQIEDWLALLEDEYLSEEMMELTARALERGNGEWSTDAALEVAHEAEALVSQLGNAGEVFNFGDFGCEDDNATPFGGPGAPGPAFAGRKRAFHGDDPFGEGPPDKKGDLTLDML

Molecule	binding signal [1]	binding result (ICP8 [2])	also measured
TTTTTCCGATCGTCCACACGGAGC (double strand) [B-IE3 (ICP4 consensus; IE-CS)]			binding signal (fold vs IE3 (reference)) [1]: 1
CGGGGCGGGCCGGGGGCGGGG [B-VEGF]	2.5 fold vs IE3		
TTTTTGGGGAGGGTGGGGAGGGTGGGGAAGG [B-myc]	2.5 fold vs IE3		
TTTTTGGGGGCGAGGGGCGGGAGGGGGCGAGGGGGGGGGCGAGGGGCGGGAGGGGGCGAGGGG [B-un2L2]	2.5 fold vs IE3		
B1		no binding	
B2			binding result (ICP8 [3]): binds
B3			binding result ([4]; unfolded): no binding
B4			binding result ([4]; G4): binds
B5		no binding	
B6		no binding	
